Where “and” joins values, the source holds several entries; their conditions need not be identical. Equal values may be shown once.
Key:
Test in all cases: fluorescence anisotropy
[1] = target: RPA WT (RPA70-RPA32-RPA14) (human) (UniProt P27694+P15927+P35244); settings: FA: 200 mM NaCl, KCl or LiCl, 20 mM HEPES pH 7.4, 1 mM DTT, 22-25 C, 375 or 750 pM oligo, Kd,app +/- SEM; EMSA: 20 mM HEPES pH 7.4, 200 mM KCl, 1 nM 32P oligo
[2] = target: CST (CTC1-STN1-TEN1) (human) (UniProt Q2NKJ3+Q9H668+Q86WV5); settings: FA: 200 mM NaCl, KCl or LiCl, 20 mM HEPES pH 7.4, 1 mM DTT, 22-25 C, 375 or 750 pM oligo, Kd,app +/- SEM, EMSA: 20 mM HEPES pH 7.4, 200 mM KCl, 1 nM 32P oligo
RPA AroB (human) = settings: FA: 200 mM NaCl, KCl or LiCl, 20 mM HEPES pH 7.4, 1 mM DTT, 22-25 C, 375 or 750 pM oligo, Kd,app +/- SEM; EMSA: 20 mM HEPES pH 7.4, 200 mM KCl, 1 nM 32P oligo
RPA AroC (human) = settings: FA: 200 mM NaCl, KCl or LiCl, 20 mM HEPES pH 7.4, 1 mM DTT, 22-25 C, 375 or 750 pM oligo, Kd,app +/- SEM; EMSA: 20 mM HEPES pH 7.4, 200 mM KCl, 1 nM 32P oligo
RPA AroA (human) = settings: FA: 200 mM NaCl, KCl or LiCl, 20 mM HEPES pH 7.4, 1 mM DTT, 22-25 C, 375 or 750 pM oligo, Kd,app +/- SEM; EMSA: 20 mM HEPES pH 7.4, 200 mM KCl, 1 nM 32P oligo
RPA Aro1 (human) = settings: FA: 200 mM NaCl, KCl or LiCl, 20 mM HEPES pH 7.4, 1 mM DTT, 22-25 C, 375 or 750 pM oligo, Kd,app +/- SEM; EMSA: 20 mM HEPES pH 7.4, 200 mM KCl, 1 nM 32P oligo
RPA Aro3 (human) = settings: FA: 200 mM NaCl, KCl or LiCl, 20 mM HEPES pH 7.4, 1 mM DTT, 22-25 C, 375 or 750 pM oligo, Kd,app +/- SEM; EMSA: 20 mM HEPES pH 7.4, 200 mM KCl, 1 nM 32P oligo
RPA Aro4 (human) = settings: FA: 200 mM NaCl, KCl or LiCl, 20 mM HEPES pH 7.4, 1 mM DTT, 22-25 C, 375 or 750 pM oligo, Kd,app +/- SEM; EMSA: 20 mM HEPES pH 7.4, 200 mM KCl, 1 nM 32P oligo

CST (CTC1-STN1-TEN1) (human), sequence (Q2NKJ3 whole entry, chain 1 of 3): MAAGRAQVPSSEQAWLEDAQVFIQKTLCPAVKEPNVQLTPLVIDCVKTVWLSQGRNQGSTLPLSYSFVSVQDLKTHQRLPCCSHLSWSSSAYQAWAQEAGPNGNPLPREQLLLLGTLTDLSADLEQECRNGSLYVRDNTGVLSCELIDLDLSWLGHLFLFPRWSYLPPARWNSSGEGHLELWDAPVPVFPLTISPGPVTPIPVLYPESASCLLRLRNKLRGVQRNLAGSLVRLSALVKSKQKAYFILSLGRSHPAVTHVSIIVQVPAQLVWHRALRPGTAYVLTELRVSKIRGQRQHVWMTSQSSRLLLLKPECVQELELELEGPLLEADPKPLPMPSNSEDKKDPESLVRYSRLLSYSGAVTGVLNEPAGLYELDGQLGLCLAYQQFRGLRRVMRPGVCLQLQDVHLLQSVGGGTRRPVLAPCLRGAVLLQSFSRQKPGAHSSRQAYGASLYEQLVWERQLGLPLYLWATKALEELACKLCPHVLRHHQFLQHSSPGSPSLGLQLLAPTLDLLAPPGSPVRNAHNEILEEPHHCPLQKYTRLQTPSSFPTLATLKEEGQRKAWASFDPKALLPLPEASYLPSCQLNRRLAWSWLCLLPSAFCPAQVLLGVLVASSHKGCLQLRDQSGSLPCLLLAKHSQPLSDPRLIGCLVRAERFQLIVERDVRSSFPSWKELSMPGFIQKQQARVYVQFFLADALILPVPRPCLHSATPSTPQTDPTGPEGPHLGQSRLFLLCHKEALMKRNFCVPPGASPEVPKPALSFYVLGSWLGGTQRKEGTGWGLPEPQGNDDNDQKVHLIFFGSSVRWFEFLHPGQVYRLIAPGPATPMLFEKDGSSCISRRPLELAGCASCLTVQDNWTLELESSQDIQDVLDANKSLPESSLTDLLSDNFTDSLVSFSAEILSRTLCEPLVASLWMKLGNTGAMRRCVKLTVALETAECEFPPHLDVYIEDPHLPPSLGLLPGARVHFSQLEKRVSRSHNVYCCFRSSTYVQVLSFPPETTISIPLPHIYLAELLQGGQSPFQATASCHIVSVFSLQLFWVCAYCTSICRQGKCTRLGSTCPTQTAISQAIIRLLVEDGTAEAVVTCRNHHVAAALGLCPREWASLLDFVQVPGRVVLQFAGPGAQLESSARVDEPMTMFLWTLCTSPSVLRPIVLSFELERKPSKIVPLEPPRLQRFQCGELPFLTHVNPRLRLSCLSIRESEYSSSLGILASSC
CST (CTC1-STN1-TEN1) (human), sequence (Q9H668 whole entry, chain 2 of 3): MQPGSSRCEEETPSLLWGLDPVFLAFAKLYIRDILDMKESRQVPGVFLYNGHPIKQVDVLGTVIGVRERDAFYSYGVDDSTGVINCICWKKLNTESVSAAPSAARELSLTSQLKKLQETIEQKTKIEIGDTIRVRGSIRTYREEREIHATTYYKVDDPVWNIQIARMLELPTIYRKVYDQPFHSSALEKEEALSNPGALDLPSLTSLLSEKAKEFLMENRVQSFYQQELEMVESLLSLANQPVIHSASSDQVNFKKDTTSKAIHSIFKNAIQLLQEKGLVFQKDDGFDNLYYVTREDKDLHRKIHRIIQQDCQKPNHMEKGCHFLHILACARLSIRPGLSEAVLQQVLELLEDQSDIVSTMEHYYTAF
CST (CTC1-STN1-TEN1) (human), sequence (Q86WV5 whole entry, chain 3 of 3): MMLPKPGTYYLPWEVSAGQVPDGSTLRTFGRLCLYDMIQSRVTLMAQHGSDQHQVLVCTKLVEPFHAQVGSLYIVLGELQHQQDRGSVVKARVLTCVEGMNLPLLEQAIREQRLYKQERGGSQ
RPA WT (RPA70-RPA32-RPA14) (human), sequence (P27694 whole entry, chain 1 of 3): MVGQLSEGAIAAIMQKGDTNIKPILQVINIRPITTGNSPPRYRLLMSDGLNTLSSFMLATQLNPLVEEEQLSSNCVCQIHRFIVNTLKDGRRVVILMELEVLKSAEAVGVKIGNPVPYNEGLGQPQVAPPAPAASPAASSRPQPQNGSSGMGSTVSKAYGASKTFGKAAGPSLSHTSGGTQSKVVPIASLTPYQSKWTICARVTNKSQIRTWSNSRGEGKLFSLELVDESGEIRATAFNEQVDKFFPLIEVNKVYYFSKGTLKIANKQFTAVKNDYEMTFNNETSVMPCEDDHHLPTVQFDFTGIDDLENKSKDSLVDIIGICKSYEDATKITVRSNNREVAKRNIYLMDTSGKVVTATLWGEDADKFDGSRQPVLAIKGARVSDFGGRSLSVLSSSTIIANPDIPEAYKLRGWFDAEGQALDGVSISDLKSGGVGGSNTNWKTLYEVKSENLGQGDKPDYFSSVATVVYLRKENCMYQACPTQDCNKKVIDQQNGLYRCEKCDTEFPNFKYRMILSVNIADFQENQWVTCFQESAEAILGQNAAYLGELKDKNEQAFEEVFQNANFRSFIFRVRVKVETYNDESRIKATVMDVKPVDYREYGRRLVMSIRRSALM
RPA WT (RPA70-RPA32-RPA14) (human), sequence (P15927 whole entry, chain 2 of 3): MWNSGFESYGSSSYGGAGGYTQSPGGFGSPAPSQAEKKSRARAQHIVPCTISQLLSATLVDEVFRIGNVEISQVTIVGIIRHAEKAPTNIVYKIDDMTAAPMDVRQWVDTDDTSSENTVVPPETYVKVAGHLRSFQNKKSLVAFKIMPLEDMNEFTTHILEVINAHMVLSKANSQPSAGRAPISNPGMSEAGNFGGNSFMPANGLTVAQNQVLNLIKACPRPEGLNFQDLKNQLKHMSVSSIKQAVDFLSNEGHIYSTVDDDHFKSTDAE
RPA WT (RPA70-RPA32-RPA14) (human), sequence (P35244 whole entry, chain 3 of 3): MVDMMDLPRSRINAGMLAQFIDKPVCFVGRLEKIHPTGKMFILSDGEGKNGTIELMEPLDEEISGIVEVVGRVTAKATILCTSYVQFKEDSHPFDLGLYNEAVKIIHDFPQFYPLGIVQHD

| Substance | Kd [1] | Kd ([2]; 200 mM LiCl) [pM] | Kd [2] | Kd (RPA AroB (human)) | Kd (RPA AroC (human)) | Kd (RPA AroA (human)) | Kd ([2]; 200 mM KCl, printed >=, incomplete curve) [pM] | Kd (RPA Aro1 (human)) | Kd (RPA Aro3 (human)) | Kd (RPA Aro4 (human)) |
| --- | --- | --- | --- | --- | --- | --- | --- | --- | --- | --- |
| Tel40 | 1300 pM and 1100 pM and 900 pM | 730 | 740 pM and 1100 pM | – | – | – | – | – | – | – |
| Tel30 | 960 pM and 810 pM and 320 pM | 5200 | 67000 pM and 112000 pM | 1070 pM and 1900 pM and 360 pM | 620 pM and 1620 pM and 280 pM | 480 pM and 770 pM and 290 pM | – | – | – | – |
| Tel22 | 1230 pM and 1990 pM and 350 pM | 6700 | 106000 pM | – | – | 2400 pM and 2500 pM and 360 pM | > 340000 | – | – | – |
| Tel60 | 790 pM and 690 pM and 800 pM | 1200 | 10600 pM and 9000 pM | – | – | – | – | – | – | – |
| Tel18 | 730 pM and 500 pM and 660 pM | 6700 | 7700 pM and 9300 pM | 500 pM and 660 pM and 450 pM | 590 pM and 260 pM and 490 pM | 790 pM and 340 pM and 360 pM | – | 4700 pM and 2500 pM and 5600 pM | 240 pM and 560 pM and 650 pM | 3500 pM and 9100 pM and 5100 pM |

Source: paper PMC10250233
